These results are taken from patent US5536822A, “γ-phosphate linked adenosine 5' triphosphate sepharose” (University of Virginia Alumni Patents Foundation, priority 1994, dated 1996).

Data set [1] concerns T1, Nc1ncnc2c1ncn2[C@@H]1O[C@H](COP(=O)(O)OP(=O)(O)OP(=O)(O)O)[C@@H](O)[C@H]1O.
T1 construct: Department of Microbiology, University of Virginia (obtained from; not a purchase)
Briefly: Inhibition constant of the ATP derivative / Km for ATP, p60^c-src assay (peptide substrate). It is filed as biochemical. To be noted: other: p60^c-src; pH 7.4. The text has this: [γ-^32 P] ATP was synthesized according to the procedure set forth in Johnson et al., Advances in Cyclic Nucleotide Research, 10:135-167 (1979). The catalytic subunit of cyclic-AMP-dependent protein kinase was purchased from Promega. p60^c-arc was obtained from the Department of Microbiology, University of Virginia. Recombinant p42^mapk was purified as described in Haystead et al., (1992) FEBS Lett., 306:17-22. STE7 antibody was obtained from the University of Vancouver, Canada.
The 42-kDa MAP kinase (p42^mapk) and MAPKK were assayed as described previously (Haystead et al. (1992) FEBS. Lett., 306:17-22). The cyclic-A kinase assays (30 μl) included 1 μg cyclic-A kinase, 2 mM Kemptide, 50 mM Hepes, pH 7.4, 1 mM dithiothreitol, 200 μM ATP, 5 mM MgCl2. […]
In order to assess the effectiveness of adenosine 5'-(γ-4-aminophenyl)triphosphate as an affinity ligand for protein kinases, the inhibition constants (Ki) of the derivative were determined for four different protein kinases, namely, p42^mapk, cyclic-A kinase, MAPKK and p60^c-arc (Table 1). […] This also facilitated comparisons for the relative binding constants determined with other ATP analogs (Flockhart et al. (1984) Eur. J. Biochem., 140:289-295; Hoppe et al. (1972) Eur. J. Biochem., 80:369-372; Taylor et al. (1990) Peptides and Protein Phosphorylation (Kemp et al.) pp 2-32, CRC Press).

The subject of data set [2] is Nc1ncnc2c1ncn2[C@@H]1O[C@H](COP(=O)(O)OP(=O)(O)OP(=O)(O)O)[C@@H](O)[C@H]1O. Briefly: purified protein, by the assay type. To be noted: other: cyclic A kinase; pH 7.4.
Source text: However, since the Km for ATP varied for each protein kinase tested, for comparative purposes it was convenient to determine the Ki /Km quotient (Table 1).

For the substance p60^c-src (Homo sapiens), the Km in data set [1] amounted to 6.2 ± 1.30 µM. On to Cyclic A kinase (Bos taurus), for which the Km in data set [2] came out at 7.1 ± 0.51 µM.
